Tests used:
GDF8, O14793 [1] = assay: SPR (Biacore); receptor-Fc captured by anti-Fc antibody, ligand injected; conditions: remark: other sources report otherwise
GDF8, O14793 [2] = assay: SPR (Biacore); receptor-Fc captured by anti-Fc antibody, ligand injected; † Very low signal; conditions: remark: other sources report otherwise

Chain of GDF8, O14793 (O14793 267-375 limits assumed): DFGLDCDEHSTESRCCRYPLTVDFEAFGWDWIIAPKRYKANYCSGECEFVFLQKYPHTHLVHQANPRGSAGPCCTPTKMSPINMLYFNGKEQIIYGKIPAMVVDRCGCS

koff (GDF8, O14793 [1]): 0.0019 s⁻¹ | kon (GDF8, O14793 [1]): 130000 M⁻¹ s⁻¹ | Kd (GDF8, O14793 [2]): 15 nM
B1: ALK4-Fc homodimer, P36896 24-126 (Fc fusion, not shown: a dimerising Fc or GST)
chain: SGPRGVQALLCACTSCLQANYTCETDGACMVSIFNLDGMEHHVRTCIPKVELVPAGKPFYCLSSEDLRNTHCCYTDYCNRIDLRVPSGHLKEPEHPSMWGPVE

— patent publication US20230129812A1, “COMPOSITIONS AND METHODS FOR TREATING PULMONARY HYPERTENSION” (Acceleron Pharma Inc., priority 2020, published 2023)
